Entries after “also recorded” stand apart in the source; their conditions may differ.
Legend:
[1] = Fluorescence dequenching liposome leakage (liposome disruption) assay; assay type: biochemical
Description: Liposomes composed of DOPC (1,2-dioleoyl-sn-glycero-3-phosphocholine), DOPC with 25% cholesterol (molar ratio to DOPC), 3:1 DOPC:POPS (1-palmitoyl-2-oleoyl-sn-glycero-3-phospho-L-serine), and 3:1 DOPC:POPS with 25% cholesterol were prepared identically to a final concentration of 5 mM total lipid as previously described (32); lipids from Avanti Polar Lipids. Lipids solubilized in chloroform were dried under nitrogen gas and stored under vacuum for a minimum of 2 hours to remove residual solvent. The dried lipid film was the resuspended in Tris buffer (10 mM Tris, 150 mM NaCl, and 0.02% NaN3 pH 8.0) containing 25 mM Sulforhodamine B (SRB) fluorophore (Sigma) and subjected to 10 sequential freeze thaw cycles in liquid nitrogen. Liposomes were extruded 29 times through 100 nm pore size polycarbonate filters (Avanti Polar Lipids) and purified from free fluorophore using a PD-10 gel filtration column (GE Healthcare) into storage buffer (10 mM Tris, 150 mM NaCl, and 0.02% NaN3 pH 8.0). Liposome size and homogeneity was analyzed by dynamic light scattering (DLS) using a Dynapro Nanostar™ DLS (Wyatt Technologies). On average liposome diameter ranged from 120-130 nm with low polydispersity. Liposomes were stored at 4° C. and used within 5 days of preparation.
Liposome disruption and content leakage was analyzed by fluorescence spectroscopy as previously described (32). […] The solution was rapidly acidified to the target pH by addition of a fixed volume of acidification buffer and incubated for 20 minutes. […] SRB fluorescence is independent of pH within the ranges used here. Finally. Triton X-100 (Sigma) was added to a final concentration of 1% to fully disrupt liposomes. Liposome disruption as indicated by content leakage and SRB dequenching was normalized using the formula [Fω−F(0)]/[F(Max)−F(0)] where F(0) is the average fluorescence intensity before acidification and F(Max) is the average fluorescence intensity ater addition of Triton X-100. All measurements were collected on a Varian Cary Eclipse spectrophotometer using an excitation/emission pairing of […] and 2.5 nm slit widths at 24° C. Any data plotted together was collected using the sum batch of liposomes.

[2] = Native mass spectrometry of pH-induced changes in oligomeric state; assay type: physicochemical; conditions: for pH transition point of disassembly (pH set point, pH0): evaluated from pH 7 down to pH 3; for cooperativity of the pH-induced transition: native MS at different pH values; for reversibility of disassembly: pH lowered with acetic acid, then raised by ammonia or buffer exchange
Description: Samples were buffer exchanged twice into 200 mM ammonium acetate (NH4Ac; MilliporeSigma) using Micro Bio-Spin P-6 columns (Bio-Rad). Protein concentrations were determined by UV absorbance using a Nanodrop 2000c spectrophotometer (Thermo Fisher Scientific) and diluted to make up a 10-fold stock solution (50 μM and 16.7 μM monomer and trimer concentration, respectively). 1 μL of this solution was mixed with 9 μL 200 mM NH4Ac/50 mM triethylammonium acetate (TEAA; MilliporeSigma), adjusted with acetic acid (Fisher Scientific) to obtain the desired final pH and incubated on ice for 30 min. […] 5 μL samples were filled into an in-house pulled glass capillary and ionized by nESI at a monomer or a trimer concentration of 5 μM or 1.67 μM respectively. All pH titration data were acquired on an in-house modified SYNAPT® G2 HDMS (Waters Corporation) with a surface-induced dissociation (SID) device incorporated between a truncated trap traveling wave ion guide and the ion mobility cell (39). The following instrument parameters were used spray voltage 0.9-1.3 kV; sampling cone, 20 V; extraction cone, 2 V; source temperature, room temperature; trap gas flow, 4 mL/min; trap bins, 45V. The data were processed with MassLynx™ v4.1 and DriftScope™ v2.1. For relative quantification, charge state series were extracted from DriftScope™, and smoothed spectra (mean; window 20; number of smooths 20) were integrated.
Python scripts were written to generate theoretical models according Equation 1, and curve-fitting to native mass spectrometry data (FIGS. 1, 3, 5) according to Equation 2 by nonlinear least squares using curve fit from scipy.optimize. The free energy estimates for individual n, m, and l layers used in Equation 1 modeling were estimated by solving linear equations as follows: values for the free energy of folding for designs pRO-2 and variants were estimated from GdmCl denaturation experiments (FIG. 11); each of these designs have different numbers of n, m, and l layers, thus series of linear equations relating the number of each layer type to the total free energies of folding were solved to estimate dG values of the individual layers of each type.

B1: SEQ ID NO: 37: pRO2.3, single-chain, GS linkers on all loops, asymmetrized, TEV site opposite to the termini direction (protein)
chain: GSEEEIKRLLEELRKSSEELRRITKELDDLSKELRVGGSGSGSEMLVEHNKLISEHNRIIVENNRIIVEILEAIARVGGSGSGSVEVERILDELRKSSEELDRVTKELKKLTEELDVGGSENLYFQGSGSVEALVRHNVLITRHNDIIVKNNDIINKILKLIAEAVGGSGSGSELERILRELEESTKELRKATEELRRLSEELKVGGSGSGSVEALVRHNEAIVEHNKIIVKNNDIIVKILELITERI
In the case of B1, the “liposome disruption relative to pRO2.3, nanoparticle fusion” value ([1]; fused at its n-terminus to a nanoparticle) is reported as “as well as pRO2.3”, the “kinetics of dissociation in the liposome assay” value ([1]; linked-pH trimer) is reported as “slower” and the “membrane disruption level (dye leakage over time)” value ([1]; linked-pH trimer, order of minutes) is reported as “same membrane disruption levels”.

B2: SEQ ID NO: 38: similar to pRO2.3, TEV site parallel to the termini, aromatic residues on the n-terminal helix (protein)
chain: GSEEEIKRLLEELRKSSEELRRITKELDDLSKELRVGGSGSGSEMLVEHNKLISEHNRIIVENNRIIVEILEAIARVGGSGSGSVEVERILDELRKSSEELDRVTKELKKLTEELDVGGSGSGSVEALVRHNVLITRHNDIIVKNNDIINKILKLIGEAVGGSENLYFQGSGSEFERWLRQLEESTKELRKFTEELRRFSEELKVGGSGSGSVEALVRHNEAIVEHNKAIVKNNDIIVKILELVTERI
For B2, the “liposome disruption better than the pRO2.3 homotrimer” value ([1]; compared with pRO2.3 homotrimer) was 5-10%.

B3: pRO-2.1: pRO-2 variant, SEQ ID NO: 3-4 (protein)
chain 1: MGSHHHHHHGSGSENLYFQGSEYEIRKALEELKAALAELKRATASLRAITEELKKNPSEDALVEHNRAIVEHNAIIVEVLRIIAAVLELIVRAIK
chain 2: SEYEIRKALEELKAALAELKRATASLRAITEELKKNPSEDALVEHNRAIVEHNAIIVEVLRIIAAVLELIVRAIK
For B3, the “pH transition point of disassembly (pH set point, pH0)” value (from here on “pH transition point of disassembly”) ([2]; native MS) was roughly 3.5 pH.

B4: pRO-2.2: pRO-2 variant, SEQ ID NO: 5-6 (protein)
chain 1: MGSHHHHHHGSGSENLYFQGSEYEIRKALEELKAALAELKRATASLRAILEELKKNPSEDAIVEAIRAIVEHNAIIVEVLRIIAAVLELIVRAIK
chain 2: SEYEIRKALEELKAALAELKRATASLRAILEELKKNPSEDAIVEAIRAIVEHNAIIVEVLRIIAAVLELIVRAIK
For B4, the “pH response of oligomeric state (pH-induced disassembly)” value ([2]; native MS, pH ~7 to ~3) was “eliminates the pH response altogether; also recorded: no significant pH response”.

B5: pRO-2.4: pRO-2 variant, SEQ ID NO: 9-10 (protein)
chain 1: MGSHHHHHHGSGSENLYFQGSEYEIRKALEELKAATAELKRATASLRASTEELKKNPSEDALVENNRLIVEHNAIIVEHNRIIAAVLELIVRAIK
chain 2: SEYEIRKALEELKAATAELKRATASLRASTEELKKNPSEDALVENNRLIVEHNAIIVEHNRIIAAVLELIVRAIK
For B5, the “cooperativity of the pH-induced transition” value [2] was “less cooperative”, the “pH transition point of disassembly” value ([2]; native MS) was “higher transition pH” and the reversibility of disassembly [2] was “Re-association was induced”.

B6: pRO-4: designed heterodimer, SEQ ID NO: 27-28, chains 81 and 82 (protein)
chain 1: MDEEDHLKKLKTHLEKLERHLKLLEDHAKKLEDILKERPEDSAVKESIDELRRSIELVRESIEIFRQSVEEEEGSSHHHHHHSSGENLYFQGDVKELTKILDTLTKILETATKVIKDATKLLEEHRKSDKPDPRLIETHKKLVEEHETLVRQHKELAEEHLKRTR
chain 2: MDEEDHLKKLKTHLEKLERHLKLLEDHAKKLEDILKERPEDSAVKESIDELRRSIELVRESIEIFRQSVEEEEGDVKELTKILDTLTKILETATKVIKDATKLLEEHRKSDKPDPRLIETHKKLVEEHETLVRQHKELAEEHLKRTR
chain 3: MDEEDHLKKLKTHLEKLERHLKLLEDHAKKLEDILKERPEDSAVKESIDELRRSIELVRESIEIFRQSVEEEE
chain 4: GSSHHHHHHSSGENLYFQGDVKELTKILDTLTKILETATKVIKDATKLLEEHRKSDKPDPRLIETHKKLVEEHETLVRQHKELAEEHLKRTR
modifications: Synthetic polpypeptide; (1)..(18) Optional residues
With B6 the “pH transition point of disassembly” value ([2]; native MS) was roughly 4 pH.

B7: pRO-4 L23A/V130A: pRO-4 mutant heterodimer, SEQ ID NO: 29-30, 83-84 (protein)
chain 1: MDEEDHLKKLKTHLEKLERHLKLAEDHAKKLEDILKERPEDSAVKESIDELRRSIELVRESIEIFRQSVEEEEGSSHHHHHHSSGENLYFQGDVKELTKILDTLTKILETATKVIKDATKLLEEHRKSDKPDPRLIETHKKLVEEHETLARQHKELAEEHLKRTR
chain 2: MDEEDHLKKLKTHLEKLERHLKLAEDHAKKLEDILKERPEDSAVKESIDELRRSIELVRESIEIFRQSVEEEEGDVKELTKILDTLTKILETATKVIKDATKLLEEHRKSDKPDPRLIETHKKLVEEHETLARQHKELAEEHLKRTR
chain 3: MDEEDHLKKLKTHLEKLERHLKLAEDHAKKLEDILKERPEDSAVKESIDELRRSIELVRESIEIFRQSVEEEE
chain 4: GSSHHHHHHSSGENLYFQGDVKELTKILDTLTKILETATKVIKDATKLLEEHRKSDKPDPRLIETHKKLVEEHETLARQHKELAEEHLKRTR
modifications: Synthetic polpypeptide; (1)..(18) Optional residues
For B7, the “pH transition point of disassembly” value ([2]; native MS) was roughly 4.6 pH.

B8: pRO-2.3: pRO-2 variant, SEQ ID NO: 7-8 (protein)
chain 1: MGSHHHHHHGSGSENLYFQGSEYEIRKALEELKASTAELKRATASLRAITEELKKNPSEDALVEHNRAIVEHNAIIVENNRIIAAVLELIVRAIK
chain 2: SEYEIRKALEELKASTAELKRATASLRAITEELKKNPSEDALVEHNRAIVEHNAIIVENNRIIAAVLELIVRAIK
For B8, the reversibility of disassembly [2] was “Re-association was induced”.

B9: pRO-2.3-GS: pRO-2.3 with flexible GS loop, SEQ ID NO: 35-36 (protein)
chain 1: MGSHHHHHHGSGSENLYFQGSEYEIRKALEELKASTAELKRATASLRAITEELKKGGSGSGSEDALVEHNRAIVEHNAIIVENNRIIAAVLELIVRAIK
chain 2: GSEYEIRKALEELKASTAELKRATASLRAITEELKKGGSGSGSEDALVEHNRAIVEHNAIIVENNRIIAAVLELIVRAIK
In the case of B9, the “oligomeric state at pH 7 / neutral pH” value ([2]; native MS) is reported as “retains its trimeric assembly at neutral pH” and the “cooperativity of the pH-induced transition” value [2] is reported as “less cooperativity”.

B10: pRO-2-GS: pRO-2 with flexible GS loop, SEQ ID NO: 33-34 (protein)
chain 1: MGSHHHHHHGSGSENLYFQGSEYEIRKALEELKAATAELKRATASLRAITEELKKGGSGSGSEDALVEHNRAIVEHNAIIVEHNRIIAAVLELIVRAIK
chain 2: GSEYEIRKALEELKAATAELKRATASLRAITEELKKGGSGSGSEDALVEHNRAIVEHNAIIVEHNRIIAAVLELIVRAIK
For B10, the “oligomeric state at pH 7 / neutral pH” value ([2]; native MS) was “loses its homogenous trimeric assembly at neutral pH”.
